# Test results from patent US20040072255.
# Key:
# [1] = tested on: rat fast skeletal troponin I, alpha or monophosphorylated form
# [2] = tested on: rat fast skeletal troponin I, beta or diphosphorylated form
# rat fast skeletal troponin I, beta or diphosphorylated form, sequence (chain, as listed by the source): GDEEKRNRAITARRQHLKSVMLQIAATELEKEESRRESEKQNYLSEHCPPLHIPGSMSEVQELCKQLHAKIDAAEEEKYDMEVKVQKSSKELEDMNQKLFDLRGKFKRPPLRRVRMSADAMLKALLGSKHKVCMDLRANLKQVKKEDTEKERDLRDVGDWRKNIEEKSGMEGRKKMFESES
# rat fast skeletal troponin I, alpha or monophosphorylated form, sequence (chain, as listed by the source): as above
substance,measurement,setting,value
Protein phosphatase-1 (Sigma),dephosphorylation of myofibrils prior to 2-dimensional SDS-PAGE,[1],Neither form was evident in samples after dephosphorylation with PP-I
same,dephosphorylation of myofibrils prior to 2-dimensional SDS-PAGE,[2],Neither form was evident in samples after dephosphorylation with PP-I
